Source: US20090105116A1

Legend:
[1] = target: T1, CaCdc42 (R150K), sNBD-labeled and GMPPCP-loaded (Candida albicans); assay: fluorescence titration of 1 µM sNBD-labeled, GMPPCP-loaded CaCdc42 (R150K)
[2] = target: T1, CaCdc42 (R150K), sNBD-labeled and …; assay: fluorescence cross-titration of sNBD-labeled CaCdc42 (R150K) in the presence of cCla4
[3] = target: T1, CaCdc42 (R150K), sNBD-labeled and …; assay: fluorescence cross-titration; cCst20 with mCst20 added, against cCst20 alone
[4] = target: T1, CaCdc42 (R150K), sNBD-labeled and …; assay: fluorescence cross-titration of sNBD-labeled CaCdc42 (R150K) in the presence of 50 µM mCst20
[5] = target: T1, CaCdc42 (R150K), sNBD-labeled and …; assay: fluorescence cross-titration; mCst20 with cCst20 added, against mCst20 alone
[6] = target: T1, CaCdc42 (R150K), sNBD-labeled and …; assay: fluorescence cross-titration of sNBD-labeled CaCdc42 (R150K) in the presence of cCst20
[7] = target: T1, CaCdc42 (R150K), sNBD-labeled and …; assay: fluorescence titration of 1 µM sNBD-labeled, GMPPCP-loaded CaCdc42 (R150K) with the peptide [panel B]
[8] = target: T1, CaCdc42 (R150K), sNBD-labeled and …; assay: fluorescence titration of 1 µM CaCdc42 (R150K) with eCla4-SLAM, no SAP-SH2
[9] = target: T1, CaCdc42 (R150K), sNBD-labeled and …; assay: fluorescence titration of 1 µM sNBD-labeled, GMPPCP-loaded CaCdc42 (R150K) with the peptide [panel A]
eCla4-SLAM = assay: fluorescence titration of sNBD-CaCdc42 (R150K) with eCla4-SLAM in the presence of SAP-SH2 (competition; fit of the apparent Kd against SAP-SH2 concentration)
[10] = target: T1, CaCdc42 (R150K), sNBD-labeled and …; assay: fluorescence cross-titration of sNBD-labeled CaCdc42 (R150K) in the presence of 50 µM mCla4

| Binder | Kd [1] | further results |
| --- | --- | --- |
| GGNSGVSGPINFTHKVHVGFDSGSGNFTGLPDTWKSLLQHSKIT (modifications not checked) [eCla4-SG, O14427 227-248; O14427 249-270] | 0.067 µM | – |
| EVNIKISTPFNAKHLAHVGIDDNGNFTGLPDTWKSLLQHSKIT (modifications not checked) [mCst20-cCla4] | 2.64 µM | – |
| GNSGVSGPINFTHKVHVGFDPA (modifications not checked) [mCla4, O14427 227-248] | 4.2 µM | Kd [2]: 4.1 µM |
| GSYTGLPIEWERLLSASGITKK (modifications not checked) [cCst20, P0CY24 491-512] | 1160 µM | fold enhancement in binding upon addition of the cognate peptide [3]: 5.5 fold; Kd [4]: 207 µM |
| VNIKISTPFNAKHLAHVGIDDN (modifications not checked) [mCst20, P0CY24 469-490] | 0.43 µM | fold enhancement in binding upon addition of the cognate peptide [5]: 5.5 fold; Kd [6]: 0.081 µM; EC50 (read off the curve) [7]: 0.9 µM |
| eCla4-SLAM (modifications not checked) peptide: GGNSGFPGPINFTHKVHVGFDRKSLTIYAQVQKNFTGLPDTWKSLLQHSKIT | 0.127 µM | EC50 (read off the curve) [8]: 0.7 µM |
| GGNSGVSGPINFTHKVHVGFDPASGSYTGLPIEWERLLSASGIT (modifications not checked) [mCla4-cCst20] | 0.031 µM | – |
| GNSGVSGPINFTHKVHVGFDPASGNFTGLPDTWKSLLQHSKITN (modifications not checked) [eCla4, O14427 227-270] | 0.025 µM | EC50 (read off the curve) [9]: 0.5 µM |
| VNIKISTPFNAKHLAHVGIDDNGSYTGLPIEWERLLSASGITKK (modifications not checked) [eCst20, P0CY24 469-512] | 0.046 µM | EC50 (read off the curve) [9]: 0.5 µM |
| EVNIKISTPFNAKHLAHVGIDPDNGNFTGLPDTWKSLLQHSKIT (modifications not checked) [mCst20-P-cCla4] | 0.093 µM | – |
| SH2 domain from the SAP protein (protein) GSSHHHHHHSSFNPRGSDAVAVYHGKISRETGEKLLLATGLDGSYLLRDSESVPGVYCLCVLYHGYIYTYRVSQTETGSWSAETAPGVHKRYFRKIKNLISAFQKPDQGIVIPLQYPVEK | – | Ki (eCla4-SLAM): 362 µM |
| SGNFTGLPDTWKSLLQHSKITN (modifications not checked) [cCla4, O14427 249-270] | 275 µM | Kd [10]: 311 µM |
